Source: the supplement of paper PMC10126150
± gives the standard deviation of the averaged measurements.

Tested on: ATP
Experiment: switch fluorescence ratio, 500 uM ATP over buffer (Cy3 cluster intensity, sum of 5 cycles each) (fold (ratio)); higher = stronger signal-on switching upon ATP binding; sequences stand for … in TCGTCGGCAGCGTCAGATGTGTATAAGAGACAGTTTTTTTTTTTTTTTTTTTTTTTTT…TC
Conditions: aptamer strand: ATP DNA aptamer (quencher-CACCTGGGGGAGTATTGCGGAGGAAGG + anchor), 100 nM annealed; ATP concentration: 500 uM
Method in brief: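 Between each of five buffer/ATP cycles, the flow-cell was stripped with NaOH and re-annealed. Each cycle imaged Cy3-labelled switching-strand clusters, annealed to 100 nM quencher-labelled ATP aptamer on a modified Illumina MiSeq flow-cell, first in selection buffer and then after 15 min with 500 uM ATP at 22 °C. The fluorescence ratio is summed target-cycle over summed buffer-cycle Cy3 intensity per cluster, averaged per switch-domain sequence, with clusters outside 100-1000 RFU excluded.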
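Also: ATP exposure 15 min at 22 °C before imaging.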

Row | Sequence | switch fluorescence ratio
1 | TTTTAGGACC | 1 ± 0.025
2 | GCGTTTTGCA | 0.978 ± 0.015
3 | TAGCTAATCC | 1.08 ± 0.015
4 | TCCGGTCGAT | 1.127 ± 0.0072
5 | GAAATCGTTC | 1.02 ± 0.019
6 | GAGGTGTAGA | 1.05 ± 0.022
7 | TGATGCTTCA | 1 ± 0.037
8 | GGCCGACAGC | 1.03 ± 0.032
9 | CTCCGAGATG | 5.85 ± 0.59
10 | ATAACAAATT | 1.03 ± 0.031
11 | TTCTAATGGT | 1.01 ± 0.073
12 | TATCGGGGCT | 0.981 ± 0.064
13 | TGCTTTACAT | 1.03 ± 0.014
14 | CATCTGATGC | 1.08 ± 0.015
15 | AGGAGCTGAA | 0.987 ± 0.021
16 | GGACGTAGTT | 0.9578 ± 0.0095
17 | TCAGTAAATG | 0.969 ± 0.038
18 | ATTGTATTGT | 0.987 ± 0.03
19 | CCGGTCAGTG | 1.066 ± 0.0088
20 | GTGGCATTTT | 1.01 ± 0.03
21 | GATCTGGCGG | 1.01 ± 0.034
22 | AAAAGCTTTA | 0.983 ± 0.018
23 | AGGTTATGGT | 0.992 ± 0.052

Row | Sequence | switch fluorescence ratio
24 | GCGTCAGGTG | 3.82 ± 0.21
25 | GCGGGGAGGG | 1.05 ± 0.033
26 | GAACCTGTGT | 0.993 ± 0.052
27 | CCGTGGGATG | 0.986 ± 0.031
28 | GAAAAAGGGA | 0.979 ± 0.026
29 | CTCGGTATGC | 1.257 ± 0.0034
30 | GCCAGAGATA | 1.0422 ± 0.00051
31 | AATGGGGGCT | 1.02 ± 0.022
32 | TTATGGAAGG | 1.03 ± 0.02
33 | AGACGGTCGG | 0.975 ± 0.016
34 | ATGTGGTGGT | 1 ± 0.043
35 | TTGGCTTAAA | 1.007 ± 0.0097
36 | TTCGCCAATG | 1.07 ± 0.03
37 | GCTAGTATG | 0.9954 ± 0.0072
38 | ATCATGTGCG | 1.01 ± 0.033
39 | AGGTGCAGTG | 1.015 ± 0.0042
40 | GGCTCAGGGG | 1.16 ± 0.035
41 | AAAGCAGGGG | 1.06 ± 0.037
42 | GGTATTCGAA | 1.054 ± 0.0022
43 | TACTGGCTAA | 1 ± 0.038
44 | AAATTTTGAG | 1.02 ± 0.032
45 | ATCGTAGGTT | 0.972 ± 0.015
46 | TTAAAAGAT | 0.998 ± 0.035

Row | Sequence | switch fluorescence ratio
47 | TTTGGCGAGT | 1.01 ± 0.021
48 | TAGTGAAGGG | 0.9974 ± 0.0061
49 | GCCTGTTTGT | 0.983 ± 0.02
50 | ATTATGTCCA | 0.96991 ± 0.00059
51 | GGCTATTAAA | 1.01 ± 0.011
52 | TCAAGCCATC | 1.063 ± 0.0037
53 | GGATGCTGGG | 1 ± 0.015
54 | GGATATGTGG | 0.99 ± 0.025
55 | CAGGCTTTGC | 0.992 ± 0.076
56 | TCGCGCGGTG | 0.978 ± 0.021
57 | CTCGGCGTCC | 1.142 ± 0.0086
58 | TACGCTTCAT | 1.02 ± 0.011
59 | TGCAGACGGT | 1.2 ± 0.14
60 | AGTATGTAAA | 1.02 ± 0.017
61 | TATACCGCGA | 2.49 ± 0.29
62 | AAGGTAGGCG | 0.987 ± 0.011
63 | TTTTGGGCGG | 0.99 ± 0.022
64 | TTAGGGTGGG | 1.01 ± 0.053
65 | GCAAGTCTGA | 1.03 ± 0.019
66 | TGGGAAAGTT | 0.988 ± 0.025
67 | TATGCTTTAA | 1.01 ± 0.024
68 | TTTTAGTAAC | 1.02 ± 0.017
69 | TGGATTGGAT | 1.03 ± 0.035

Row | Sequence | switch fluorescence ratio
70 | CCGGGGTCGT | 1.02 ± 0.012
71 | GTTCAAATAG | 0.9884 ± 0.0095
72 | GGGTAAGTTG | 0.962 ± 0.05
73 | CCCCACGGCC | 1.16 ± 0.028
74 | ACGTTGTACT | 1.14 ± 0.037
75 | CAAGGTTGTT | 1 ± 0.011
76 | TTTTTTCCCT | 1.08 ± 0.12
77 | ATAGGGGA | 0.989 ± 0.018
78 | ATTGTAGGGT | 0.972 ± 0.021
79 | TATGGTGTTC | 0.981 ± 0.015
80 | TTGCATGTTT | 1.15 ± 0.3
81 | TTCGGGCAGG | 1.06 ± 0.054
82 | GGTTACAGTT | 1.036 ± 0.01
83 | TAACGACCGC | 1.24 ± 0.03
84 | GGGTGTGAAC | 0.9859 ± 0.0046
85 | GAAATGATTT | 1.0406 ± 6.4e-05
86 | GGGGCGAACG | 0.977 ± 0.04
87 | AGGTACGATT | 1.02 ± 0.034
88 | ATTCGGGCTT | 0.976 ± 0.013
89 | TATTGCTTT | 0.977 ± 0.012
90 | GGTTCACTTT | 1.02 ± 0.033
91 | TGATTTTACC | 1.06 ± 0.015
92 | TTTTTCAAGA | 0.9897 ± 0.0088

Row | Sequence | switch fluorescence ratio
93 | CTATCAACCG | 1.04 ± 0.022
94 | GGAGCGCTGG | 1.05 ± 0.02
95 | TAGGGCTTAG | 1.02 ± 0.032
96 | GGATTACGTA | 1.04 ± 0.059
97 | TGGTTCGTCT | 0.955 ± 0.058
98 | TCTATAAATA | 0.985 ± 0.022
99 | AGGGTTATGA | 0.995 ± 0.021
100 | TCGGCGAGGG | 0.977 ± 0.021
101 | TTTTATCCCA | 1.004 ± 0.0067
102 | TATTTGAAAT | 1.01 ± 0.039
103 | TTTTGTTCCC | 1 ± 0.034
104 | CTAACTGGCA | 1.048 ± 0.009
105 | ATGGGCACA | 0.99899 ± 0.00092
106 | TACTCTTTGT | 1.015 ± 0.002
107 | TGATTAGGGG | 0.9948 ± 0.0096
108 | AAGTGGGTAT | 1.16 ± 0.23
109 | TTTGTATGTT | 0.991 ± 0.051
110 | CGTTAGAGAG | 0.99 ± 0.03
111 | ACCCATCTGT | 0.979 ± 0.013
112 | TAATGGATGT | 0.976 ± 0.027
113 | GTGATGGCAG | 0.9846 ± 0.0053
114 | TTGGGGTTAT | 0.975 ± 0.032
115 | GGGGGTTGGG | 1.01 ± 0.043

Row | Sequence | switch fluorescence ratio
116 | TTTTCGCTTA | 1.01 ± 0.03
117 | GGATTGGACT | 1 ± 0.019
118 | TGGTGGGTCG | 1.08 ± 0.069
119 | AGTCGGGAGG | 0.945 ± 0.062
120 | TCGTAAAGGA | 1.03 ± 0.043
121 | AAGGGCGATT | 1.02 ± 0.055
122 | AGATTCATGT | 0.988 ± 0.018
123 | TGGTTATCTT | 0.969 ± 0.011
124 | GGAAGGTGGT | 0.987 ± 0.024
125 | ATTTTGGTTG | 1.01 ± 0.035
126 | TTTCCGACGT | 1.46 ± 0.62
127 | TGGTGCGGCG | 1.09 ± 0.031
128 | AGGTGGGGG | 0.979 ± 0.015
129 | ATGTTGTAAG | 1.01 ± 0.039
130 | GCCCTAAGGC | 0.979 ± 0.054
131 | TGTCGTCGGG | 0.995 ± 0.026
132 | CTATGATTTA | 0.975 ± 0.027
133 | ATTGTGCTGG | 0.983 ± 0.018
134 | ATTTATGGGG | 1 ± 0.032
135 | AAAGAGTGCG | 1 ± 0.042
136 | TCCATCGGGG | 1.01 ± 0.013
137 | TTGGTCCGTC | 1.01 ± 0.047
138 | GCTGGGATAG | 1.01 ± 0.019

Row | Sequence | switch fluorescence ratio
139 | ACTTGGTACT | 1.02 ± 0.018
140 | AGAAAATAGT | 1.03 ± 0.032
141 | GCGTGGGGGA | 1 ± 0.039
142 | TTGTTCGTTT | 0.986 ± 0.025
143 | CACACGTTTT | 1.02 ± 0.013
144 | TGTTGTCAAG | 1.01 ± 0.026
145 | GAGGTCCACT | 1.01 ± 0.044
146 | TTGCGAGAAC | 1.17 ± 0.18
147 | CTCGGCTTGA | 1.06 ± 0.018
148 | CGGTGCTACT | 1.03 ± 0.063
149 | CTTTGGATTG | 0.99917 ± 0.00068
150 | TAATTATCTT | 0.979 ± 0.058
151 | ACGGGCGGGG | 1.02 ± 0.021
152 | CCTGCCTCCT | 2.27 ± 0.041
153 | TGAGAGGCGA | 1.01 ± 0.011
154 | TATATGGGGC | 1.03 ± 0.03
155 | ACAAGATCGG | 1.0072 ± 0.00016
156 | ACTAGTTTTG | 0.976 ± 0.033
157 | TTTATGTATG | 1.02 ± 0.034
